Laboratory results published in PMC4624033.
pKd: −log10 of the molar value.

Experiments:
Experiment in all cases: AUC
Pcdhα7 EC1-EC5 (mouse) = biological target: Pcdhα7 EC1-EC5 (mouse)
PcdhαC2 EC1-EC4 (mouse) = biological target: PcdhαC2 EC1-EC4 (mouse)
PcdhαC2 EC1-EC5 (mouse) = biological target: PcdhαC2 EC1-EC5 (mouse)
[1] = biological target: PcdhαC2 EC1-EC6 (complete ectodomain) (mouse)
[2] = biological target: PcdhαC2 EC1-EC6 S118R (mouse)
PcdhαC2 EC2-EC6 (mouse) = biological target: PcdhαC2 EC2-EC6 (mouse)
PcdhγA8 EC1-EC4 (mouse) = biological target: PcdhγA8 EC1-EC4 (mouse)
PcdhγA8 EC2-EC6 (mouse) = biological target: PcdhγA8 EC2-EC6 (mouse)
PcdhγB6 EC1-EC4 = biological target: PcdhγB6 EC1-EC4
[3] = biological target: PcdhγB6 EC1-EC6 (complete ectodomain)
PcdhγC5 EC1-EC5 (mouse) = biological target: PcdhγC5 EC1-EC5 (mouse)
[4] = biological target: PcdhγC5 EC1-EC6 (complete ectodomain) (mouse)
[5] = biological target: PcdhγC5 EC1-EC6 S116R (mouse)
PcdhγC5 EC2-EC6 (mouse) = biological target: PcdhγC5 EC2-EC6 (mouse)
[6] = biological target: PcdhγC5 EC2-EC6 S116R (mouse)

Pcdhα7 EC1-EC5 (domain or fragment) showed a pKd (Pcdhα7 EC1-EC5 (mouse)) of 5.54 and a stoichiometry N (Pcdhα7 EC1-EC5 (mouse)) of 2.
In the case of PcdhαC2 EC1-EC4 (domain or fragment), the pKd (PcdhαC2 EC1-EC4 (mouse)) was 4.70 and the stoichiometry N (PcdhαC2 EC1-EC4 (mouse)) was 2.
For PcdhαC2 EC1-EC5 (domain or fragment), the pKd (PcdhαC2 EC1-EC5 (mouse)) was 5.23 and the stoichiometry N (PcdhαC2 EC1-EC5 (mouse)) was 2.
Substance “PcdhαC2 EC1-EC6 (complete ectodomain) (domain or fragment)” has a pKd [1] of 7.00 and a stoichiometry N [1] of 4.
For “PcdhαC2 EC1-EC6 S118R (domain or fragment)”, the pKd [2] was 5.74 and the stoichiometry N [2] was 4.
For PcdhαC2 EC2-EC6 (domain or fragment), the stoichiometry N (PcdhαC2 EC2-EC6 (mouse)) was 2.
Work on PcdhγA8 EC1-EC4 (domain or fragment) yielded a pKd (PcdhγA8 EC1-EC4 (mouse)) of 4.52 and a stoichiometry N (PcdhγA8 EC1-EC4 (mouse)) of 2.
For PcdhγA8 EC2-EC6 (domain or fragment), the pKd (PcdhγA8 EC2-EC6 (mouse)) was 4.64 and the stoichiometry N (PcdhγA8 EC2-EC6 (mouse)) was 2.
In the case of PcdhγB6 EC1-EC4 (domain or fragment), the pKd (PcdhγB6 EC1-EC4) was 4.54 and the stoichiometry N (PcdhγB6 EC1-EC4) was 2.
“PcdhγB6 EC1-EC6 (complete ectodomain) (domain or fragment)” was tested, and the stoichiometry N [3] was 4.
Work on PcdhγC5 EC1-EC5 (domain or fragment) yielded a pKd (PcdhγC5 EC1-EC5 (mouse)) of 4.00 and a stoichiometry N (PcdhγC5 EC1-EC5 (mouse)) of 2.
Substance “PcdhγC5 EC1-EC6 (complete ectodomain) (domain or fragment)” has a stoichiometry N [4] of 4.
“PcdhγC5 EC1-EC6 S116R (domain or fragment)” gave a pKd [5] of 5.24 and a stoichiometry N [5] of 2.
Substance PcdhγC5 EC2-EC6 (domain or fragment) has a stoichiometry N (PcdhγC5 EC2-EC6 (mouse)) of 2.
Substance “PcdhγC5 EC2-EC6 S116R (domain or fragment)” has a pKd [6] of 4.85 and a stoichiometry N [6] of 2.
